In the DeepSol protein solubility set:

Test: soluble on expression in E. coli; label from the status in PepcDB or PDB records

Row | Sequence | soluble on expression in E. coli
1 | KKLCGYLSKFGGKGPIRGWKSRWFFYDERKCQLYYSRTAQDANPLDSIDLSSAVFDCKADAEEGIFEIKTPSRVITLKAATKQAMLYWLQQLQMKRWEFHNSPPAP | soluble
2 | MSGLQGKIADAVKARGYQIMTSPDKAYYWIQANVLKADKMDLRESQGWLSRGYEGAAVGAALGGGITAYNTGSAGTTLGVGLATGLIGMAADAMVEDINYTMITDVQIAERTRTSVRTDNVAALRQGTSGSKIQTSTETGNQHKYQTRVVSSANQVNLKFEEAKPHLEDQLAKSIANIL | not soluble
3 | MGSDKIHHHHHHMCSEGLRERYVNPYTDFAFKLLFGTDLNKEILIGFLNALFDGKQVIEDVIYLNTEHLGSKETDRRAVFDVYCENEKGEKILIEMQRGEQQFFKDRSIYYATYPIREQAIKGEIWNYELKAVYVIGILNFALDDVSSSGFRHEVKLMDTTTHEVFFDKLTFVYLEMPKFHKTEQELDTLFDKWMFVLKNLARLMERPTSLQERVFNRLFEAAEIAQFSKENLYAYEESLKVYRDWNNVINTAIQKGIAEGEWMKAKAIAGNLKNAGLSIAEIAKVTGLSEDEINSL | not soluble
4 | MGSDKIHHHHHHMSVRQPLPERLRPTVLEGFVGQTHLTQRIEALLRANRLPSLLLFGPPGCGKSTLALLLAKARSANVLRLSAPEAGLQHLRKQLHGVDILVLDELHRFSKAQQDFFLPLLESGDITMLATTTENPSFSVTRQLLSRLHVLRLRPLGRAELLELGRRGAVAQEVQIEDDVLDLLASMSHGDARTMLNLLEYVAALPEDKRDIEGVRSAMPEIVSRHDKDGDNHYELASALIKSIRGSDPDAALYYLACLLEGGEDPRFVCRRLILSASEDVGLADPQALPLAVACMQAVEYVGMPEGFIPMAQTTVHLALARKSNSTYAAYINAARELKTQGRKGVPLHLRNPSTRLQKEWGYGKGYRYPHSYPEGWIEQEYLPEGLEDRRFYAPRENGEEPRLSAWWRKLQRQRPPRRGSGE | not soluble
5 | SSEVLDGFDKVDKSLASSIDGSDKRNNLVLSELNTAYRTNPEKVKVWYERSLVLQKEADSLCTFIDDLKLAIARESDGKDAKVNDIRRKDNLDASSVIMLNPINGKGSTLRKEVDKFRELVATLMTDKAKLKLIEQALNTESGTKGKSWESSLFENMPTVAAITLLTKLQSDVRYAQGEVLADLVKSVDVGDYRVNSITAQVIPQSQIVMSGDTYKANIVLSSVDTTQRPDVFVNGKLLSPENMGLFTATAGAPGTYPVKGYIEMMGNDGVKIRRDFESEYFVTE | not soluble
6 | MRTGKAWVWQLRRAAERTRRPFAGDNSPTFTVEHTHRMYPCHVFCNPLIGTIQMKACSRSERREGSKKMEAAKASKPDVSAVYAVDLSQRPVSQGDAAREKAALLQLARRMHEAPGEMLRRFVELAMELTGGISAGISLLEETEPPPVFRWHHLKGILSPFNGATTPRDFSPCGITLDRSAPTLTIHPERVYDWIPPGLFLPEVLLVPLYIGRTEPLGTLWIVADRIEHFHCGHAATMQELAGFIGIALKMVRSEEELQQALEQQELLTREMGHRLKNLFTILDSMVRISARSTDNKDDLVALLSGRLHALAAAHSLVKPSFSDVQGAASSLAELLSIVLEPHEQPAISGKRRLSLTGPTVLCGEQSVNGLALVFHELATNAAKYGSLCGDLGTVDVVWQIDGDDLGITWREDGGAQATSSSPASKGFGSTLVEATVIRQFGGTLSYDWRSTGLSVHIVIPLCRLAQ | not soluble
7 | MGSNTLLCAKWLRGLRPRSRVNPLLNRALAAVGAGSPAKGRQAAPLAPIPRSSPVKALDQLTFDNRFARLGDAFSTQVLPEPIADPRLVVASESAMALLDLDPAQAELPVFAELFSGHKLWEEADPRAMVYSGHQFGSYNPRLGDGRGLLLAEVLNDAGEHWDLHLKGAGQTPYSRMGDGRAVLRSSIREFLASEALHALGIATSRALCVIGSSTPVWRETRESAAMLTRLAQSHVRFGHFEYFYYTKQPEQQRVLIDHVLEQHYPECREAEQPYLAMFRTIVERNAELIARWQAYGFCHGVMNTDNMSILGITFDFGPYAFLDDFDANFICNHSDDRGRYSYANQVPIAHWNLSALAQALTTVIEVEPLKEALGLFLPLYQAHYLDLMRRRLGLTTAEDDDMVLVERLLQCMQRGGVDYSLFFRKLGEQPVAEALKVARDDFIDLAGFDAWGADYLARCGREPGNAEGRRERMHAVNPLYVLRNYLAQKAIEAAEAGDYSEVRRLHQVLARPFEEQPGMQAYAERPPEWGKHLEISCSSLEHHHHHH | soluble
8 | MGSDKIHHHHHHMQILTIDVGGTTALFELQLAGHTEQYKIPTGEGFKIEELNNQIAALERDYDLQDYQLAIGVPGLVQNNRLVACKSLPGLNGLSFDTVKTQGELKFICNDMDAGMQATCDAKYACELLVMCGTGIGMSIAFNGQAFTGATGVAGELGHCRVMTESGEFSLEQLASGDSVRSRNITTQDDLYRAGSYLGMGLAWTVNLFNPNRIWLAGNMMNSAPYYKGCLESLKQMALSAPLAEMKINRVDDMETLVCRGLSAMLARDYPRA | not soluble
9 | MGSDKIHHHHHHAGCKTSKVVKTTPVEPAYLSSKLQLTVPNKNGSMTVSGSMKMKSGERIQLSVLMPVFRSEVMRMEVTPDEVLLIDRMNKRYVRATRDELKGILPENADFDRLEKLLFKASLPGEKKELTGRELGIPSLEKAKVRLSDFSTAEFELIPTEVSSRYTQVALEDLLKMLMKL | not soluble
10 | MEQDINNQTGKKIFLNEECFLELDKLPQHVSVLGVSGFGKSNILLHFLKYAIDNDHPLIFVNGKGDKELITQFEHYQTSAKQLSPEDGFDTVKLVALKNTSAKIWSLDDRIATIKYNPFK | soluble
11 | TVTSASDQTTTFIQTISPTAIEISKTYDLYASVLLAQAILESSSGQSDLSKAPNYNLFGIKGEYKGKSVQMPTLEDDGKGNMTQIQAPFRAYPNYSASLYDYAELVSSQKYASVWKSNTSSYKDATAALTGLYATDTAYASKLNQIIETYSL | not soluble
12 | MNNLLRCHQVCKTYQEGELQTQVLKGVSFELKRGELVSIIGSSGSGKSTLLHILGALDDASEGQVEFLGQSLHQLSSNKQAKIRNQHLGFVYQFHHLLADFSALENVAMPLLIGGMNVAKAKAKAQSLLERVGLGHRVAHRPSELSGGERQRVAIARALVNKPDLVLADEPTGNLDHKTALSIYDLMRELNRESGTAFLVVTHDGELAAKMDRHMHMKDGLLTDITGA | not soluble
13 | MSEQSICQARASVMVYDDTSKKWVPIKPGQQGFSRINIYHNTASSTFRVVGVKLQDQQVVINYSIVKGLKYNQATPTFHQWRDARQVYGLNFASKEEATTFSNAMLFALNIMNSQEGGPSTQRQVQNGPS | soluble
14 | SNTKKEIIWYKEKAQKTNYSVVYIHGFGASKNEIYPVPNNIAKALNANIFFTRLKGHGINNKNAFRGITTQDWLRDIDEAINIGKLIGDKLVLIGTSNGGTASIWALANYPNEINSAVLISPNIFPYDKRTNIVYYPWGRQIAYLITGGYNKFETKEYKRKEHPTIKSHSSRVQHVDAIIAMMGLVTLLNSYNFNEIKIPLIITHTPNDHTVDPIKINEFIKNYGGEKKDIPIILLENSHAHLPIGNQSYKSAQNTSYFTKYVFDFINKINK | not soluble
15 | MSERIASVERTTSETHISCTIDLDHIPGVTEQKINVSTGIGFLDHMFTALAKHGGMSLQLQCKGDLHIDDHHTAEDCALALGEAFKKALGERKGIKRYGYAYAPLDESLSRAVIDISSRPYFMCHLPFTREKVGDLSTEMVSHLLQSFAFAAGVTLHIDSIRGENNHHIAESAFKALALAIRMAISRTGGDDVPSTKGVLAL | soluble
16 | MSTKNRTRRTTTRNIRFPNQMIEQINIALDQKGSGNFSAWVIEACRRRLTSEKRAYTSIKSDEE | soluble
17 | MAHHHHHHMTVGAAALCEYYGYLPRLVRHTGLLPSTRTSVTSSMAATVLQSSLYEADPSPPVRSGEFELPSTYSLHKPLVYDIAALPPKPVSSLRLVIISDTHERHREMSVPNGDVLVHCGDIQEGLNFVRDVKAMLIDFSAWFTDSALHPHPVKLIIAGNHDKAIAAMSTEDVRRLFAPAVYLCEDSVVVEPAGVRFYGSPRSISNSRWSPNTAFQGKKAWKRFVFASARQDDEAGAVSTASRCSSEQPLRSRLEGATPGGPVDVLVVHQSPDIPRAHHSVSEQPICAYAQQVAPRRVLLCGHLHGAHGMHRLPVPEHVRKSFRIATRGGGGQPEGVVRMDEIPHLPCINAAMMTGRFGQNVLLPPSVVDLEL | not soluble
18 | MGHHHHHHSHMKIELSMQPWNPGYSSEGATAQETYTCPKMIEMEQAEAQLAELDLLASMFPGENELIVNDQLAVAELKDCIEKKTMEGRSSKVYFTINMNLDVSDEKMAMFSLACILPFKYPAVLPEITVRSVLLSRSQQTQLNTDLTAFLQKHCHGDVCILNATEWVREHASGYVSRDTSSSPTTGSTVQSVDLIFTRLWIYSHHIYNKCKRKNILEWAKELSLSGFSMPGKPGVVCVEGPQSACEEFWSRLRKLNWKRILIRHREDIPFDGTNDETERQRKFSIFEEKVFSVNGARGNHMDFGQLYQFLNTKGCGDVFQMFFGVEGQ | not soluble
19 | MIKTLKEHTKIVRSVTFSPNGKYLAVGDICGTVEIWRVL | soluble
20 | MGSDKIHHHHHHASCDKFDEINTDPDATTKVTSSLLATGLLLDITSSSASKSFIYDELLAKQMAWGESMEDYQYNVFGRSGFGGYTTLINAQKMVESVSDDNVNAYDGLAHFIKAYKIFYMSMEMGDLPYEEALQGELGLVRPKYNTQKEVMNFILSDLETAYELFSTAKDFDGDPILGGSISKWKKATTAFQLKVLMHLSKKESDADLKVKERFARIVASGSLMESNEDNLQMKYADKANTVYPFHNTNTKHAGYAMLSTMLIDKFKATGDIRMFYYAKPAKAKLNEGVTADSWDAYIGTDPSLPFEQIEKAYATEQYSGFNARYTDYPSGEPVVRLGYAEQNFILAEAAVRGWISGDASAYYKKAIRAHMEFIASNTPDEEVYHHGHPITEEAIAAFLETPAIQLSGEKEEDIEKILTQRYLASFMQHPYDVYYDYRRTGYPVLPINPATNRNTMNDRLPMRWMYPKSESDYNLEHQNEALERQFGGVDDVNKLMWILQ | not soluble
21 | MFGGSAPKPSIFGGTAATTTASSGFSFGNSSTSTANTGGNTNTTGGFSFGSAQPSTGSTGLFGNSTATGSMFGGSSAAAPAPASAGIFGNSGAAAPAPASTSIFGSSANSAAPATVTFGASAPSAGAGMFGANKPAAPTGGLFGSSTSTATTAPTGGLFGSSTAAPSSGLFGSTAAPAAPGGLFGSTSTSTAAPSGGLFGSSAAPTSTAPAPSGGLFGAAPATSNAAPTSGLFGNSAPAATASSGGLFGAAPKPAAPSGGLFGSTAPATTAATTTATSGLFGAPTSAPSSAPATGGLFGASTAPAAATGGLFSIGAASASTPSVGLFGNSSASTTAAAAPATAPAAASTGGLFGATTAAAAAPTSSTTGGLFGSTAAAPAASLPTGGLFGSSTPAKTPAAPTAGLFGASSTTTTSAPATGSLFGTAPATTTATSAAPAASTGGLFGASSTTTPASTAPTGGLFGAATTTAPAAAAPTGGLFGAATTTAPATVGPTGGLFGAATTTTPATAATLGQTPSTVSATPSLPTTTSTTSTLPKPAEATPTLGLGLGLTSTPLAKGTGWTTSGLKGAATTSAGLKIGASGSDTLSEEEIKAGLGGNDTKAFFTALQEVVNSYHSEIAKQERVFHNKMLELNAYDRELITLEPKVLGLYNEMDDLSGSCKKLHFNVASMTSVLNDIEQNVVELENKLSLPEWHTLDYKFPLDSRFASRHDVQRVQIAQMMLNVDSQMKCADFDLDQITKSLNTMQSTVLKTKTETPLEKTELIMKKQLQKLMDLSTQHDATRDKLNKLKDDHNLKTNNSSKA | not soluble
